Reference: patent US20160272683A1 (Novo Nordisk, published 2016)
Numbered stars: 1 amine (or outer) side, 2 acyl side, 3 side chain; on linkers, the order of the positions; unused ones are H or OH. * marks the point of attachment. C20 diacid = O=C(O)CCCCCCCCCCCCCCCCCCC(=O)*; C18 diacid = O=C(O)CCCCCCCCCCCCCCCCC(=O)*; γGlu = O=C(O)[C@H](CCC(=O)[*:2])N[*:1]

Assays:
[1] = target: T1, human amylin 3(a) receptor (human calcitonin receptor co-expressed with RAMP-3) on BHK570/CRE-luc cells (human, UniProt P30988 25-474; O60896 24-148); assay: cell-based or functional assay
T1 sequence (looked up) 1: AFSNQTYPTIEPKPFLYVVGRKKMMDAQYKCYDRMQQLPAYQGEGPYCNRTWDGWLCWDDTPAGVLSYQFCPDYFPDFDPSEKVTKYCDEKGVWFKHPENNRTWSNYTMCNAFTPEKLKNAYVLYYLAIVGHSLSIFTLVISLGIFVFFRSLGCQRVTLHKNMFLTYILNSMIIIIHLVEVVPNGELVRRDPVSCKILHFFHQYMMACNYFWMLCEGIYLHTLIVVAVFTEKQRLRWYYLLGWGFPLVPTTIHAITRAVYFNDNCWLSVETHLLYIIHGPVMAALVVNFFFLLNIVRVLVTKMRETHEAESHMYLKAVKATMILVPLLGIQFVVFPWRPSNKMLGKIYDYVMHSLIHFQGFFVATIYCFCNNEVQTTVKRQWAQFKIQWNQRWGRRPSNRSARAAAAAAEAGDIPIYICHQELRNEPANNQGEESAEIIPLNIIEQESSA
T1 sequence (looked up) 2: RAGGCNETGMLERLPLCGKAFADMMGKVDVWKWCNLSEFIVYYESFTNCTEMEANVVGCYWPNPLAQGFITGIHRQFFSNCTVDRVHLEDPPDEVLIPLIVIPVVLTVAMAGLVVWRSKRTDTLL

[2] = target: T2, human calcitonin receptor on BHK570/CRE-luc cells (human, UniProt P30988 25-474); assay: cell-based or functional assay
T2 sequence (looked up): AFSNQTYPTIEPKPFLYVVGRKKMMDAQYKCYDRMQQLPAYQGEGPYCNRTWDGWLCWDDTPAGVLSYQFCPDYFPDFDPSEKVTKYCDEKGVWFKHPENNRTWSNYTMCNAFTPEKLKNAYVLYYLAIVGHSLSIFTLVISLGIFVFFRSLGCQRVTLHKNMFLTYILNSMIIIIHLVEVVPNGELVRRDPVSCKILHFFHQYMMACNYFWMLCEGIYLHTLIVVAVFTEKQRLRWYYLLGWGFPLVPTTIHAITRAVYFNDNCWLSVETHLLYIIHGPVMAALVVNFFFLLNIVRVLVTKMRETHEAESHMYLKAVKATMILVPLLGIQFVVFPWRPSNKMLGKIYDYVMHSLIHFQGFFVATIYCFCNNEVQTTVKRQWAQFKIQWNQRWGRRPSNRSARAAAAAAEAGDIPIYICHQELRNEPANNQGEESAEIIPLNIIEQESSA

Row | Binder | hAmylin-R funct. EC50 (pM), tested with HSA [1] | hCTR funct. EC50 (pM), tested with HSA [2]
1 | {C20 diacid-γGlu}-ASELSTAALGRLSAELHELATYPRTETGSGAP-NH2 (SMILES CC(C)C[C@H](NC(=O)[C@H](C)NC(=O)[C@H](C)NC(=O)[C@@H](NC(=O)[C@H](CO)NC(=O)[C@H](CC(C)C)NC(=O)[C@H](CCC(=O)O)NC(=O)[C@H](CO)NC(=O)[C@H](C)NC(=O)CC[C@H](NC(=O)CCCCCCCCCCCCCCCCCCC(=O)O)C(=O)O)[C@@H](C)O)C(=O)NCC(=O)N[C@@H](CCCNC(=N)N)C(=O)N[C@@H](CC(C)C)C(=O)N[C@@H](CO)C(=O)N[C@@H](C)C(=O)N[C@@H](CCC(=O)O)C(=O)N[C@@H](CC(C)C)C(=O)N[C@@H](Cc1c[nH]cn1)C(=O)N[C@@H](CCC(=O)O)C(=O)N[C@@H](CC(C)C)C(=O)N[C@@H](C)C(=O)N[C@H](C(=O)N[C@@H](Cc1ccc(O)cc1)C(=O)N1CCC[C@H]1C(=O)N[C@@H](CCCNC(=N)N)C(=O)N[C@H](C(=O)N[C@@H](CCC(=O)O)C(=O)N[C@H](C(=O)NCC(=O)N[C@@H](CO)C(=O)NCC(=O)N[C@@H](C)C(=O)N1CCC[C@H]1C(N)=O)[C@@H](C)O)[C@@H](C)O)[C@@H](C)O) [[N-terminal(C20 diacid-gGlu), des1, 23Y, 30S, 31G, 32A]mimylin] | 100 pM | 37 pM
2 | {C20 diacid-γGlu}-ASELSTAALGRLSAELHELATYPRTETGSGSY-NH2 (SMILES CC(C)C[C@H](NC(=O)[C@H](C)NC(=O)[C@H](C)NC(=O)[C@@H](NC(=O)[C@H](CO)NC(=O)[C@H](CC(C)C)NC(=O)[C@H](CCC(=O)O)NC(=O)[C@H](CO)NC(=O)[C@H](C)NC(=O)CC[C@H](NC(=O)CCCCCCCCCCCCCCCCCCC(=O)O)C(=O)O)[C@@H](C)O)C(=O)NCC(=O)N[C@@H](CCCNC(=N)N)C(=O)N[C@@H](CC(C)C)C(=O)N[C@@H](CO)C(=O)N[C@@H](C)C(=O)N[C@@H](CCC(=O)O)C(=O)N[C@@H](CC(C)C)C(=O)N[C@@H](Cc1c[nH]cn1)C(=O)N[C@@H](CCC(=O)O)C(=O)N[C@@H](CC(C)C)C(=O)N[C@@H](C)C(=O)N[C@H](C(=O)N[C@@H](Cc1ccc(O)cc1)C(=O)N1CCC[C@H]1C(=O)N[C@@H](CCCNC(=N)N)C(=O)N[C@H](C(=O)N[C@@H](CCC(=O)O)C(=O)N[C@H](C(=O)NCC(=O)N[C@@H](CO)C(=O)NCC(=O)N[C@@H](CO)C(=O)N[C@@H](Cc1ccc(O)cc1)C(N)=O)[C@@H](C)O)[C@@H](C)O)[C@@H](C)O) [[N-terminal(C20 diacid-gGlu), des1, 23Y, 30S, 31G, 33Y]mimylin] | 93 pM | 71 pM
3 | {C20 diacid-γGlu}-ASELSTAALGRLSAELHELSTYPRTETGSGSP-NH2 (SMILES CC(C)C[C@H](NC(=O)[C@H](C)NC(=O)[C@H](C)NC(=O)[C@@H](NC(=O)[C@H](CO)NC(=O)[C@H](CC(C)C)NC(=O)[C@H](CCC(=O)O)NC(=O)[C@H](CO)NC(=O)[C@H](C)NC(=O)CC[C@H](NC(=O)CCCCCCCCCCCCCCCCCCC(=O)O)C(=O)O)[C@@H](C)O)C(=O)NCC(=O)N[C@@H](CCCNC(=N)N)C(=O)N[C@@H](CC(C)C)C(=O)N[C@@H](CO)C(=O)N[C@@H](C)C(=O)N[C@@H](CCC(=O)O)C(=O)N[C@@H](CC(C)C)C(=O)N[C@@H](Cc1c[nH]cn1)C(=O)N[C@@H](CCC(=O)O)C(=O)N[C@@H](CC(C)C)C(=O)N[C@@H](CO)C(=O)N[C@H](C(=O)N[C@@H](Cc1ccc(O)cc1)C(=O)N1CCC[C@H]1C(=O)N[C@@H](CCCNC(=N)N)C(=O)N[C@H](C(=O)N[C@@H](CCC(=O)O)C(=O)N[C@H](C(=O)NCC(=O)N[C@@H](CO)C(=O)NCC(=O)N[C@@H](CO)C(=O)N1CCC[C@H]1C(N)=O)[C@@H](C)O)[C@@H](C)O)[C@@H](C)O) [[N-terminal(C20 diacid-gGlu), des1, 21S, 23Y, 30S, 31G]mimylin] | 58 pM | 30 pM
4 | {C18 diacid-γGlu}-ASELSTAVLGRLSAELHELATLPRTETGSGSP-NH2 (SMILES CC(C)C[C@H](NC(=O)[C@H](CCC(=O)O)NC(=O)[C@H](Cc1c[nH]cn1)NC(=O)[C@H](CC(C)C)NC(=O)[C@H](CCC(=O)O)NC(=O)[C@H](C)NC(=O)[C@H](CO)NC(=O)[C@H](CC(C)C)NC(=O)[C@H](CCCNC(=N)N)NC(=O)CNC(=O)[C@H](CC(C)C)NC(=O)[C@@H](NC(=O)[C@H](C)NC(=O)[C@@H](NC(=O)[C@H](CO)NC(=O)[C@H](CC(C)C)NC(=O)[C@H](CCC(=O)O)NC(=O)[C@H](CO)NC(=O)[C@H](C)NC(=O)CC[C@H](NC(=O)CCCCCCCCCCCCCCCCC(=O)O)C(=O)O)[C@@H](C)O)C(C)C)C(=O)N[C@@H](C)C(=O)N[C@H](C(=O)N[C@@H](CC(C)C)C(=O)N1CCC[C@H]1C(=O)N[C@@H](CCCNC(=N)N)C(=O)N[C@H](C(=O)N[C@@H](CCC(=O)O)C(=O)N[C@H](C(=O)NCC(=O)N[C@@H](CO)C(=O)NCC(=O)N[C@@H](CO)C(=O)N1CCC[C@H]1C(N)=O)[C@@H](C)O)[C@@H](C)O)[C@@H](C)O) [[N-terminal(C18 diacid-gGlu), des1, 9V, 30S, 31G]mimylin] | 17 pM | 11 pM
5 | {C20 diacid-γGlu}-EAASELSTAALGRLSAELHELATYPRTETGSGSP-NH2 (SMILES CC(C)C[C@H](NC(=O)[C@H](C)NC(=O)[C@H](C)NC(=O)[C@@H](NC(=O)[C@H](CO)NC(=O)[C@H](CC(C)C)NC(=O)[C@H](CCC(=O)O)NC(=O)[C@H](CO)NC(=O)[C@H](C)NC(=O)[C@H](C)NC(=O)[C@H](CCC(=O)O)NC(=O)CC[C@H](NC(=O)CCCCCCCCCCCCCCCCCCC(=O)O)C(=O)O)[C@@H](C)O)C(=O)NCC(=O)N[C@@H](CCCNC(=N)N)C(=O)N[C@@H](CC(C)C)C(=O)N[C@@H](CO)C(=O)N[C@@H](C)C(=O)N[C@@H](CCC(=O)O)C(=O)N[C@@H](CC(C)C)C(=O)N[C@@H](Cc1c[nH]cn1)C(=O)N[C@@H](CCC(=O)O)C(=O)N[C@@H](CC(C)C)C(=O)N[C@@H](C)C(=O)N[C@H](C(=O)N[C@@H](Cc1ccc(O)cc1)C(=O)N1CCC[C@H]1C(=O)N[C@@H](CCCNC(=N)N)C(=O)N[C@H](C(=O)N[C@@H](CCC(=O)O)C(=O)N[C@H](C(=O)NCC(=O)N[C@@H](CO)C(=O)NCC(=O)N[C@@H](CO)C(=O)N1CCC[C@H]1C(N)=O)[C@@H](C)O)[C@@H](C)O)[C@@H](C)O) [[N-terminal(C20 diacid-gGlu), -1E, 1A, 23Y, 30S, 31G]mimylin] | 181 pM | 113 pM
6 | {C20 diacid-γGlu}-ASGLSTAALGRLSAELHELATYPRTETGSGSP-NH2 [[N-terminal(C20 diacid-gGlu), des1, 4G, 23Y, 30S, 31G]mimylin] | 71 pM | 45 pM
